Experimental findings from US7084111 (UNIVERSITY OF FLORIDA RESEARCH FOUNDATION, dated 2006) are described below.

Bridges are numbered along the chain shown (N, C = ends). Where no end group is shown, it is not given here. [ ]: non-standard residue; d: D form. Nle = CCCC[C@H](N)C(=O)O; Dap = NC[C@H](N)C(=O)O

What all share (experiment): cell-based or functional assay
In assay [1] the target is T1, mouse melanocortin-1 receptor (mouse, UniProt Q01727 1-315).
Assay [2] addresses mouse melanocortin-5 receptor (mouse, UniProt P41149 1-325).
In assay [3] the target is mouse melanocortin-4 receptor (mouse, UniProt P56450 1-332).
Chain of mouse melanocortin-4 receptor (P56450 whole entry): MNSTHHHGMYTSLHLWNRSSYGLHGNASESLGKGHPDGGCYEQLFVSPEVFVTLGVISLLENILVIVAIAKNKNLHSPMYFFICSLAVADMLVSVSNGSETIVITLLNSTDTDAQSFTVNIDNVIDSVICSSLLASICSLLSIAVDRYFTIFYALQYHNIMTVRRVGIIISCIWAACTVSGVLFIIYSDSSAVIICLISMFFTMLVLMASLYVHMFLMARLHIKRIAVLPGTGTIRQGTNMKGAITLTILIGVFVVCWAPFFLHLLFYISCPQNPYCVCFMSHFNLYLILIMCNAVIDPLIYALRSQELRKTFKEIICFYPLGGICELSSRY
For assay [4], the target named is T2, mouse melanocortin-3 receptor (mouse, UniProt P33033 1-323).
T2 sequence (P33033 whole entry): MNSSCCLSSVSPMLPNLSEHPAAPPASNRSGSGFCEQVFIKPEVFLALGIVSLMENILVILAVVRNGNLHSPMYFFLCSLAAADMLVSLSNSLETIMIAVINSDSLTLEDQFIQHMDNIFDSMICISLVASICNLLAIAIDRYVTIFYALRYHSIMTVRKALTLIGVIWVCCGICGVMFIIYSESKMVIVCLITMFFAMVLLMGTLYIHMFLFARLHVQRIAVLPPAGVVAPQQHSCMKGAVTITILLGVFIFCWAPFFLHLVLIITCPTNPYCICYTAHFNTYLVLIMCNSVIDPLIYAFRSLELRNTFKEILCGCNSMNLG
The target in assay [5] is T1, mouse melanocortin-1 receptor. The source holds these as a separate data set.
Assay [6] deals with T2, mouse melanocortin-3 receptor. The source holds these as a separate data set.

T1 sequence (Q01727 whole entry): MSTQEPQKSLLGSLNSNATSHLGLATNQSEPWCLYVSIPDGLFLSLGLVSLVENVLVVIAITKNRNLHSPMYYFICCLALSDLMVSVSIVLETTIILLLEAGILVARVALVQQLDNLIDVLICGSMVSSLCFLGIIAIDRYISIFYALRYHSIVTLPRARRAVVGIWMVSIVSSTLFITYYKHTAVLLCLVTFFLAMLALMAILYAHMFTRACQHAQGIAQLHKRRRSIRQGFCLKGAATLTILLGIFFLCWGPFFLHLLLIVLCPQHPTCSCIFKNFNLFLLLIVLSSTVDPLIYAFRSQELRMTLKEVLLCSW
Chain of mouse melanocortin-5 receptor (P41149 whole entry): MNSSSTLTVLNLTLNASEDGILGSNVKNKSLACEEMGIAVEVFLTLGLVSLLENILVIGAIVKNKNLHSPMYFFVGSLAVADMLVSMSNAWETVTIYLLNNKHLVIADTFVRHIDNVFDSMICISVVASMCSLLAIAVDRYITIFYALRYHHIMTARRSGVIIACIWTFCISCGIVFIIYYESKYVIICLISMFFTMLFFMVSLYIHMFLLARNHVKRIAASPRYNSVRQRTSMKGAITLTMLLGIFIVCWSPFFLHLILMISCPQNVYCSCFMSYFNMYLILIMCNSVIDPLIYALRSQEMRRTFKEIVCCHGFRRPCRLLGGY

B1: SEQ ID NO:20 (Ac-Nle-c[Asp-His-Arg-Phe-Phe-Lys]) (peptide)
peptide: Ac-[Nle]DHRFFK-NH2
modifications: lactam 2-7
SMILES: CCCC[C@H](NC(C)=O)C(=O)N[C@H]1CC(=O)NCCCC[C@@H](C(N)=O)NC(=O)[C@H](Cc2ccccc2)NC(=O)[C@H](Cc2ccccc2)NC(=O)[C@H](CCCNC(=N)N)NC(=O)[C@H](Cc2c[nH]cn2)NC1=O
For the molecule B1, in assay [1], the “EC50 (agonist; Partial agonist)” value was determined as 38.3 µM. Also, the “EC50 (agonist)” value in assay [2], in assay [3] and in assay [4] was more than 100 µM throughout.

B2: SEQ ID NO:19 (Ac-Nle-c[Asp-His-Ala-Ala-Ala-Lys]) (peptide)
peptide: Ac-[Nle]DHAAAK-NH2
modifications: lactam 2-7
SMILES: CCCC[C@H](NC(C)=O)C(=O)N[C@H]1CC(=O)NCCCC[C@@H](C(N)=O)NC(=O)[C@H](C)NC(=O)[C@H](C)NC(=O)[C@H](C)NC(=O)[C@H](Cc2c[nH]cn2)NC1=O
With B2, the “EC50 (agonist)” value in assay [1], in assay [2], in assay [3] and in assay [4] was more than 100 µM in each case.

B3: SEQ ID NO:17 (Ac-Ser-Tyr-Ser-Nle-Glu-His-Arg-DPhe-Phe-Gly-Lys-Pro-Val-NH2) (peptide)
peptide: Ac-SYS[Nle]EHR[dF]FGKPV-NH2
SMILES: CCCC[C@H](NC(=O)[C@H](CO)NC(=O)[C@H](Cc1ccc(O)cc1)NC(=O)[C@H](CO)NC(C)=O)C(=O)N[C@@H](CCC(=O)O)C(=O)N[C@@H](Cc1c[nH]cn1)C(=O)N[C@@H](CCCNC(=N)N)C(=O)N[C@H](Cc1ccccc1)C(=O)N[C@@H](Cc1ccccc1)C(=O)NCC(=O)N[C@@H](CCCCN)C(=O)N1CCC[C@H]1C(=O)N[C@H](C(N)=O)C(C)C
With B3, the “agonist potency, fold change against SEQ ID NO:15” value in assay [5] was found to be 8 fold. Further, in assay [6], the “fold decrease in agonist potency, fold change against SEQ ID NO:15” value turned out to be 13 fold. For the same molecule, the “EC50 (agonist)” value in assay [1] was 0.00728 µM; in assay [2], 0.45 µM; in assay [4], 6.21 µM.

B4: SEQ ID NO:11 (Ac-Ser-Tyr-Ser-Nle-Tyr-c[Asp-Arg-Phe-Phe-Asn-Ala-Phe-Dpr]-Tyr-Lys-Pro-Val) (peptide)
peptide: Ac-SYS[Nle]YDRFFNAF[Dap]YKPV-NH2
modifications: lactam 6-13
SMILES: CCCC[C@H](NC(=O)[C@H](CO)NC(=O)[C@H](Cc1ccc(O)cc1)NC(=O)[C@H](CO)NC(C)=O)C(=O)N[C@@H](Cc1ccc(O)cc1)C(=O)N[C@H]1CC(=O)NC[C@@H](C(=O)N[C@@H](Cc2ccc(O)cc2)C(=O)N[C@@H](CCCCN)C(=O)N2CCC[C@H]2C(=O)N[C@H](C(N)=O)C(C)C)NC(=O)[C@H](Cc2ccccc2)NC(=O)[C@H](C)NC(=O)[C@H](CC(N)=O)NC(=O)[C@H](Cc2ccccc2)NC(=O)[C@H](Cc2ccccc2)NC(=O)[C@H](CCCNC(=N)N)NC1=O
Take B4: the “EC50 (agonist)” value is 1.96 µM in assay [1] and more than 100 µM in assay [2]. In addition, the “pA2 (antagonist)” value in assay [3] and in assay [4] was 6.2 throughout.

In the case of Ac-SYS[Nle]EHRFFGKPV-NH2 [SEQ ID NO:15 (Ac-Ser-Tyr-Ser-Nle-Glu-His-Arg-Phe-Phe-Gly-Lys-Pro-Val)], the “EC50 (agonist)” value in assay [1] was determined as 0.0599 µM; in assay [2] it was 0.327 µM; in assay [3], 0.93 µM; in assay [4], 0.48 µM.

B5: SEQ ID NO:4 (Tyr-c[Asp-Trp-Arg-Phe-Asn-Ala-Phe-Dpr]-Tyr) (peptide)
peptide: YDWRFNAF[Dap]Y-NH2
modifications: lactam 2-9; N-terminus assumed
SMILES: C[C@@H]1NC(=O)[C@H](CC(N)=O)NC(=O)[C@H](Cc2ccccc2)NC(=O)[C@H](CCCNC(=N)N)NC(=O)[C@H](Cc2c[nH]c3ccccc23)NC(=O)[C@@H](NC(=O)[C@@H](N)Cc2ccc(O)cc2)CC(=O)NC[C@@H](C(=O)N[C@@H](Cc2ccc(O)cc2)C(N)=O)NC(=O)[C@H](Cc2ccccc2)NC1=O
Consider B5, for which the “EC50 (agonist)” value in assay [1] is 13.5 µM; in assay [2] it was more than 100 µM; in assay [4] it was more than 100 µM. For the same molecule, the “EC50 (agonist; Partial agonist)” value in assay [3] was 15.9 µM.

B6: SEQ ID NO:12 (Ac-Ser-Tyr-Ser-Nle-Glu-His-Ala-Ala-Ala-Gly-Lys-Pro-Val) (peptide)
peptide: Ac-SYS[Nle]EHAAAGKPV-NH2
SMILES: CCCC[C@H](NC(=O)[C@H](CO)NC(=O)[C@H](Cc1ccc(O)cc1)NC(=O)[C@H](CO)NC(C)=O)C(=O)N[C@@H](CCC(=O)O)C(=O)N[C@@H](Cc1c[nH]cn1)C(=O)N[C@@H](C)C(=O)N[C@@H](C)C(=O)N[C@@H](C)C(=O)NCC(=O)N[C@@H](CCCCN)C(=O)N1CCC[C@H]1C(=O)N[C@H](C(N)=O)C(C)C
As for B6, the “EC50 (agonist)” value in assay [1], in assay [2], in assay [3] and in assay [4] was more than 100 µM throughout.

B7: SEQ ID NO:14 (Ac-Ser-Tyr-Ser-Nle-Glu-His-Phe-Phe-Arg-Gly-Lys-Pro-Val) (peptide)
peptide: Ac-SYS[Nle]EHFFRGKPV-NH2
SMILES: CCCC[C@H](NC(=O)[C@H](CO)NC(=O)[C@H](Cc1ccc(O)cc1)NC(=O)[C@H](CO)NC(C)=O)C(=O)N[C@@H](CCC(=O)O)C(=O)N[C@@H](Cc1c[nH]cn1)C(=O)N[C@@H](Cc1ccccc1)C(=O)N[C@@H](Cc1ccccc1)C(=O)N[C@@H](CCCNC(=N)N)C(=O)NCC(=O)N[C@@H](CCCCN)C(=O)N1CCC[C@H]1C(=O)N[C@H](C(N)=O)C(C)C
With B7, the “EC50 (agonist; Partial agonist)” value in assay [1] turned out to be 7.22 µM; in assay [2], 24.4 µM; in assay [4] it was 20.5 µM. The “EC50 (agonist)” value in assay [3] is more than 100 µM.

B8: SEQ ID NO:2 (Tyr-c[Asp-Ala-Ala-Ala-Asn-Ala-Phe-Dpr]-Tyr) (peptide)
peptide: YDAAANAF[Dap]Y-NH2
modifications: lactam 2-9; N-terminus assumed
SMILES: C[C@@H]1NC(=O)[C@H](C)NC(=O)[C@@H](NC(=O)[C@@H](N)Cc2ccc(O)cc2)CC(=O)NC[C@@H](C(=O)N[C@@H](Cc2ccc(O)cc2)C(N)=O)NC(=O)[C@H](Cc2ccccc2)NC(=O)[C@H](C)NC(=O)[C@H](CC(N)=O)NC(=O)[C@H](C)NC1=O
In the case of B8, the “EC50 (agonist)” value in assay [1], in assay [2], in assay [3] and in assay [4] was more than 100 µM each time.

B9: SEQ ID NO:8 (Tyr-c[Asp-His-Arg-Phe-Phe-Asn-Ala-Phe-Dpr]-Tyr) (peptide)
peptide: YDHRFFNAF[Dap]Y-NH2
modifications: lactam 2-10; N-terminus assumed
SMILES: C[C@@H]1NC(=O)[C@H](CC(N)=O)NC(=O)[C@H](Cc2ccccc2)NC(=O)[C@H](Cc2ccccc2)NC(=O)[C@H](CCCNC(=N)N)NC(=O)[C@H](Cc2c[nH]cn2)NC(=O)[C@@H](NC(=O)[C@@H](N)Cc2ccc(O)cc2)CC(=O)NC[C@@H](C(=O)N[C@@H](Cc2ccc(O)cc2)C(N)=O)NC(=O)[C@H](Cc2ccccc2)NC1=O
Take B9: the “fold decrease in agonist potency, fold change against SEQ ID NO:3” value in assay [5] is 8 fold. Moreover, the “EC50 (agonist)” value in assay [1] was 13.3 µM; in assay [2] it was 100 µM; in assay [3], more than 100 µM.

B10: SEQ ID NO:42 (Tyr-c[Asp-His-DPhe-Arg-Tic-Asn-Ala-Phe-Dpr]-Tyr) (peptide)
peptide: YDHXRXNAFXY
modifications: Asp-Dpr side chain lactam bridge; Dpr; DPhe; Tic; C-terminal amide (amide resin)
Regarding B10, the “EC50 (agonist)” value worked out at 0.0216 µM in assay [1], 0.0427 µM in assay [2], 0.26 µM in assay [3] and 3.4 µM in assay [4].

B11: SEQ ID NO:13 (Ac-Ser-Tyr-Ser-Nle-Glu-Phe-Phe-Arg-Gly-Lys-Pro-Val) (peptide)
peptide: Ac-SYS[Nle]EFFRGKPV-NH2
SMILES: CCCC[C@H](NC(=O)[C@H](CO)NC(=O)[C@H](Cc1ccc(O)cc1)NC(=O)[C@H](CO)NC(C)=O)C(=O)N[C@@H](CCC(=O)O)C(=O)N[C@@H](Cc1ccccc1)C(=O)N[C@@H](Cc1ccccc1)C(=O)N[C@@H](CCCNC(=N)N)C(=O)NCC(=O)N[C@@H](CCCCN)C(=O)N1CCC[C@H]1C(=O)N[C@H](C(N)=O)C(C)C
B11: in assay [1], the “EC50 (agonist; Partial agonist)” value worked out at 19.9 µM. In addition, the “EC50 (agonist)” value in assay [2], in assay [3] and in assay [4] was more than 100 µM in each case.
